In patent US20250145711A1 (Janssen / Centocor, published 2025):
Positions count from the first letter of the chain named. Names may count otherwise.

B1: BC3B51 (bispecific antibody, human IgG1, kappa, L234A L235A)
chain: QVQLVQSGAEVKKPGSSVKVSCKASGYTFTRSTMHWVKQAPGQGLEWIGYINPSSAYTNYNQKFQGRVTLTADKSTSTAYMELSSLRSEDTAVYYCASPQVHYDYQGFPYWGQGTLVTVSSGGSEGKSSGSGSESKSTGGSEIVLTQSPATLSASPGERVTLSCSASSSVSYMNWYQQKPGQAPRRWIYDSSKLASGVPARFSGSGSGRDYTLTISSLEPEDFAVYYCQQWSRNPPTFGGGTKVEIKEPKSSDKTHTCPPCPAPEAAGGPSVFLFPPKPKDTLMISRTPEVTCVVVSVSHEDPEVKFNWYVDGVEVHNAKTKPREEQYNSTYRVVSVLTVLHQDWLNGKEYKCKVSNKALPAPIEKTISKAKGQPREPQVYVYPPSREEMTKNQVSLTCLVKGFYPSDIAVEWESNGQPENNYKTTPPVLDSDGSFALVSKLTVDKSRWQQGNVFSCSVMHEALHNHYTQKSLSLSPG
heavy: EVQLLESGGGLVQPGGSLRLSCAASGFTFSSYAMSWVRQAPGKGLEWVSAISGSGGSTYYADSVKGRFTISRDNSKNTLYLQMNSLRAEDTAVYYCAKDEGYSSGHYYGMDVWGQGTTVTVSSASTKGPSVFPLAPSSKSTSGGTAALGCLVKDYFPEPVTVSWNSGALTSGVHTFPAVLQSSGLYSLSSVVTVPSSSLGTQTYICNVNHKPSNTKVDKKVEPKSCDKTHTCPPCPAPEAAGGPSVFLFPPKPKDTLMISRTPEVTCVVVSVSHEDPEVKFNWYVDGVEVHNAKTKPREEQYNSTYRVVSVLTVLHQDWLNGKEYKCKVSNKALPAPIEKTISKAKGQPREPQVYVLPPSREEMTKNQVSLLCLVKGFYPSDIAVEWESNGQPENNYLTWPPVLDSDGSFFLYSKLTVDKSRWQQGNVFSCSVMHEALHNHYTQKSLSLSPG
light: EIVLTQSPGTLSLSPGERATLSCRASQSISSSFLTWYQQKPGQAPRLLIYGASSRATGIPDRFSGGGSGTDFTLTISRLEPEDFAVYYCQHYGSSPMYTFGQGTKLEIKRTVAAPSVFIFPPSDEQLKSGTASVVCLLNNFYPREAKVQWKVDNALQSGNSQESVTEQDSKDSTYSLSSTLTLSKADYEKHKVYACEVTHQGLSSPVTKSFNRGEC
notes: IgG1 BCMAxCD3; HC1: CD3B2030-N106Q HL scFv-Fc; also called BC3B51.001; B2030 HL NtoQ
B2: BC3B107 (bispecific antibody, human IgG1, kappa, L234A L235A)
chain: B1 chain with I48M, Q106A, W187L
heavy: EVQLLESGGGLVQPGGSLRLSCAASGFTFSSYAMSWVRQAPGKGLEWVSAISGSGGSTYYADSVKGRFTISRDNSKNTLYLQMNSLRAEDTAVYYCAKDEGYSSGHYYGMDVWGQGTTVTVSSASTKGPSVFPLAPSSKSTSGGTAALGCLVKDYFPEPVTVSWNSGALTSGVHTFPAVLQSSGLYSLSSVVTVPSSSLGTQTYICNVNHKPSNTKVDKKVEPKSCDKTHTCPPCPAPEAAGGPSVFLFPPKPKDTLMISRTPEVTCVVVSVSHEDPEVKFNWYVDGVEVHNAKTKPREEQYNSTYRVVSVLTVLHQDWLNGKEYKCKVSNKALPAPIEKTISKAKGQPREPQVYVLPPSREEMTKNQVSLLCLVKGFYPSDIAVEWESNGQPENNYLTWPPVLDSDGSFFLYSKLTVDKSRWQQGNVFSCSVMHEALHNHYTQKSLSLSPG
light: B1 light
notes: IgG1 BCMAxCD3; HC1: CD3B2051-N106A HL scFv-Fc; also called BC3B107.001; B2051 HL NtoA
B3: BC3B110 (bispecific antibody, human IgG1, kappa, L234A L235A)
chain: B1 chain with I48M, Q106S, W187L
heavy: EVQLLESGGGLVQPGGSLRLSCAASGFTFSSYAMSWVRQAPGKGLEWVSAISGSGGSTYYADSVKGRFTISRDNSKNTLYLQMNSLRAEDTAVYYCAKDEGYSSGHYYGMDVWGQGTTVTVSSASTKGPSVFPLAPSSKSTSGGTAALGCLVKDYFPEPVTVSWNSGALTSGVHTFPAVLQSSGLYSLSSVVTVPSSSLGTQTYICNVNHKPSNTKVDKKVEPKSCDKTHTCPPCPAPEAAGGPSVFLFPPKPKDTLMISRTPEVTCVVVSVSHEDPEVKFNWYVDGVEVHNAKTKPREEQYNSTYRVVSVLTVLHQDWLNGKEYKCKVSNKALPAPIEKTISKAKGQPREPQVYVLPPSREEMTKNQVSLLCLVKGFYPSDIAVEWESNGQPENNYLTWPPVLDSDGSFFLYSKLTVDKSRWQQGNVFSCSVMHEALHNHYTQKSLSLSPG
light: B1 light
notes: IgG1 BCMAxCD3; HC1: CD3B2051-N106S HL scFv-Fc; also called BC3B110.001; B2051 HL NtoS
B4: BC3B108 (bispecific antibody, human IgG1, kappa, L234A L235A)
chain: B1 chain with I48M, Q106G, W187L
heavy: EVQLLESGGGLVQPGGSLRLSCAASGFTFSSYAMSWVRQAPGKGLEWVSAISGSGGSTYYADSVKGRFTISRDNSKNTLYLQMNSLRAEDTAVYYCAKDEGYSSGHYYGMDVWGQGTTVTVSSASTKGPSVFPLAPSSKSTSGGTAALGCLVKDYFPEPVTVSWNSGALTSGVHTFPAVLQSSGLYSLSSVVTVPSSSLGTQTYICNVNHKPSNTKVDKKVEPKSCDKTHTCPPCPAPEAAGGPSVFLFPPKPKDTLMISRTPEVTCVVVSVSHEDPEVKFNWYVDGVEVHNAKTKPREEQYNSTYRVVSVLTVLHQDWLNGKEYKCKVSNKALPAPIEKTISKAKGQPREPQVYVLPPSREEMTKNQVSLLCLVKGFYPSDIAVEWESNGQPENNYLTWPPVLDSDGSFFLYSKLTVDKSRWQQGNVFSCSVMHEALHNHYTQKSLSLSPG
light: B1 light
notes: IgG1 BCMAxCD3; HC1: CD3B2051-N106G HL scFv-Fc; also called BC3B108.001; B2051 HL NtoG
B5: BC3B103 (bispecific antibody, human IgG1, kappa, L234A L235A)
chain: B1 chain with Q106A
heavy: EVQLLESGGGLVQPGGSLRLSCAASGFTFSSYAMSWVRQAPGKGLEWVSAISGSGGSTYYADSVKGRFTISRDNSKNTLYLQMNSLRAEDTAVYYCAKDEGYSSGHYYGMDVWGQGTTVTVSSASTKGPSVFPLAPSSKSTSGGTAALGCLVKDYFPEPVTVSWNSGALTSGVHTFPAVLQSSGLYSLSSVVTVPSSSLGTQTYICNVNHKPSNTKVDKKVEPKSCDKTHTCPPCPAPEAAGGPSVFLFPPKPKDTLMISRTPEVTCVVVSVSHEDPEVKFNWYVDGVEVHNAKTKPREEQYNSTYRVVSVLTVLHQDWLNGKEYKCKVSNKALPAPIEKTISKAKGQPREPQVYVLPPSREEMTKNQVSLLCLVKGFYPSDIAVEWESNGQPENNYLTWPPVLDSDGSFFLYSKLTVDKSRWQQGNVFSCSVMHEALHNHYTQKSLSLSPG
light: B1 light
notes: IgG1 BCMAxCD3; HC1: CD3B2030-N106A HL scFv-Fc; also called BC3B103.001; B2030 HL NtoA
B6: BC3B109 (bispecific antibody, human IgG1, kappa, L234A L235A)
chain: B1 chain with I48M, W187L
heavy: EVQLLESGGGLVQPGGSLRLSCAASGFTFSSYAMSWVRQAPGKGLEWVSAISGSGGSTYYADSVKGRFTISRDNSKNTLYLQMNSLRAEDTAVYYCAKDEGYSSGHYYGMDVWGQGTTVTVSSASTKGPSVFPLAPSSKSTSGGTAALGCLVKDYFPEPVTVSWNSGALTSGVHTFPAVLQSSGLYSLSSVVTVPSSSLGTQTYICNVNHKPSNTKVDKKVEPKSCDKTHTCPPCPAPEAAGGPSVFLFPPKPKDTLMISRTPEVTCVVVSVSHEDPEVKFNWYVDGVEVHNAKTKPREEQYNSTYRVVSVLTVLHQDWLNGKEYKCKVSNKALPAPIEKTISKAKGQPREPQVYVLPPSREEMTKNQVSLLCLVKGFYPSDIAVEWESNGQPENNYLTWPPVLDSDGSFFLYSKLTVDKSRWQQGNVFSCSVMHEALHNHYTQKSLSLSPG
light: B1 light
notes: IgG1 BCMAxCD3; HC1: CD3B2051-N106Q HL scFv-Fc; also called BC3B109.001; B2051 HL NtoQ
B7: BC3B113 (bispecific antibody, human IgG1, kappa, L234A L235A)
chain: B1 chain with K38R, I48M, N61A, Q106G
heavy: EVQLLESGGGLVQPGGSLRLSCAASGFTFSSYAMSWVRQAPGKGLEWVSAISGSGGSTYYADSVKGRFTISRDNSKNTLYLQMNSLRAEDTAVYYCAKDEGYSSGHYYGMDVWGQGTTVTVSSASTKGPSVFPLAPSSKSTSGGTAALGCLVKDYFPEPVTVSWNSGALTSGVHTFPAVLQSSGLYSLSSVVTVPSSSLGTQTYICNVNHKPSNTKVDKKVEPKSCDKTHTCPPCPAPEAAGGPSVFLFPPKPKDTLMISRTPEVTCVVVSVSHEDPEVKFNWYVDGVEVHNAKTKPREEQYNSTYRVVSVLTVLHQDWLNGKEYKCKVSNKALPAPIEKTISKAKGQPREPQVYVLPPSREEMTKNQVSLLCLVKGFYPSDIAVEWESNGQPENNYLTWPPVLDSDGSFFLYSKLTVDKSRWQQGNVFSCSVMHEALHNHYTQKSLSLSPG
light: B1 light
notes: IgG1 BCMAxCD3; HC1: CD3B2089-N106G HL scFv-Fc; also called BC3B113.001; B2089 HL NtoG
B8: BC3B105 (bispecific antibody, human IgG1, kappa, L234A L235A)
chain: B1 chain with Q106S
heavy: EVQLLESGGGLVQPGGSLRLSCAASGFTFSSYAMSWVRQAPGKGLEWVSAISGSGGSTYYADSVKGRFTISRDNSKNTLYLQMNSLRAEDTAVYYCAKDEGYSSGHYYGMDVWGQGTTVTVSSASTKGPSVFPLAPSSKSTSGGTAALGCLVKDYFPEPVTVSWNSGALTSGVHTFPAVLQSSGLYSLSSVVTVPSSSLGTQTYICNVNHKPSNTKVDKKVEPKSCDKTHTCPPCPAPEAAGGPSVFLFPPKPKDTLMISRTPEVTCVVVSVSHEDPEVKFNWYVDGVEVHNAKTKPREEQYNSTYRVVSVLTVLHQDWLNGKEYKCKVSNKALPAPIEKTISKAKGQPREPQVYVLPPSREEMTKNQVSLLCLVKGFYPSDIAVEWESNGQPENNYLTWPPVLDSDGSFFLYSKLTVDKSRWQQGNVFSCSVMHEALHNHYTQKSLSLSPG
light: B1 light
notes: IgG1 BCMAxCD3; HC1: CD3B2030-N106S HL scFv-Fc; also called BC3B105.001; B2030 HL NtoS
B9: BC3B104 (bispecific antibody, human IgG1, kappa, L234A L235A)
chain: B1 chain with Q106G
heavy: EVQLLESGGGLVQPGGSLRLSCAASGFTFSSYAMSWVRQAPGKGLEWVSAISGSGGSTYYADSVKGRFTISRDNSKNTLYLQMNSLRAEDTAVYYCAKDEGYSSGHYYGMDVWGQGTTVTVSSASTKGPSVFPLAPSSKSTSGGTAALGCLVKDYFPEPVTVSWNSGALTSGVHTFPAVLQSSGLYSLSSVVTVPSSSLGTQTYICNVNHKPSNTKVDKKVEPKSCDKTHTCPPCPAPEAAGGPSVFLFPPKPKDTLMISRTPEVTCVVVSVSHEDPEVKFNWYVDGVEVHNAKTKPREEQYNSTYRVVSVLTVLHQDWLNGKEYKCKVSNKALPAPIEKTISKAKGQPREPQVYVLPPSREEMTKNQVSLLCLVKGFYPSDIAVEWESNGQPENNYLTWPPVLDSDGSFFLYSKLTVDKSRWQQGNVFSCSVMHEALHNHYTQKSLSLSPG
light: B1 light
notes: IgG1 BCMAxCD3; HC1: CD3B2030-N106G HL scFv-Fc; also called BC3B104.001; B2030 HL NtoG
B10: BC3B114 (bispecific antibody, human IgG1, kappa, L234A L235A)
chain: B1 chain with K38R, I48M, N61A
heavy: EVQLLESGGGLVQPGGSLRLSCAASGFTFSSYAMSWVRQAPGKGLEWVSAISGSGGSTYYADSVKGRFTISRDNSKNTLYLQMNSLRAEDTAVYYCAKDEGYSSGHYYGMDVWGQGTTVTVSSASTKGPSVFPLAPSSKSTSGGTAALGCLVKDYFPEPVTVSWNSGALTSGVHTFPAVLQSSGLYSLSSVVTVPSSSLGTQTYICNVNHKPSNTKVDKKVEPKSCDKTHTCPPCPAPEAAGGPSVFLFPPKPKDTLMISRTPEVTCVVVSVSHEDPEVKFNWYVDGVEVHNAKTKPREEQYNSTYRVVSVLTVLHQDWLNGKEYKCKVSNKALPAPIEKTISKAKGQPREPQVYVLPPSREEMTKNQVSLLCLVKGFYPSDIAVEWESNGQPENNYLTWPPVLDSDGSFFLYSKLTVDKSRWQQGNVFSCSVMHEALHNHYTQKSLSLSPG
light: B1 light
notes: IgG1 BCMAxCD3; HC1: CD3B2089-N106Q HL scFv-Fc; also called BC3B114.001; B2089 HL NtoQ
B11: BC3B129 (bispecific antibody, human IgG1, kappa, L234A L235A)
chain: EIVLTQSPATLSASPGERVTLSCSASSSVSYMNWYQQKPGQAPRRWIYDSSKLASGVPARFSGSGSGRDYTLTISSLEPEDFAVYYCQQWSRNPPTFGGGTKVEIKGGSEGKSSGSGSESKSTGGSQVQLVQSGAEVKKPGSSVKVSCKASGYTFTRSTMHWVRQAPGQGLEWMGYINPSSAYTNYAQKFQGRVTLTADKSTSTAYMELSSLRSEDTAVYYCASPQVHYDYSGFPYWGQGTLVTVSSEPKSSDKTHTCPPCPAPEAAGGPSVFLFPPKPKDTLMISRTPEVTCVVVSVSHEDPEVKFNWYVDGVEVHNAKTKPREEQYNSTYRVVSVLTVLHQDWLNGKEYKCKVSNKALPAPIEKTISKAKGQPREPQVYVYPPSREEMTKNQVSLTCLVKGFYPSDIAVEWESNGQPENNYKTTPPVLDSDGSFALVSKLTVDKSRWQQGNVFSCSVMHEALHNHYTQKSLSLSPG
heavy: not shown
light: B1 light
notes: IgG1 BCMAxCD3; HC1: CD3B2089-N106S LH scFv-Fc; also called BC3B129.001; B2089 LH NtoS
B12: GCDB131 (bispecific antibody, human IgG1, kappa, L234A L235A)
heavy: QVQLLQSAAEVKKPGESLKISCKGSGYTFTRSTMHWVRQTPGKGLEWMGYINPSSAYTNYNQKFKDQVTISADKSISTAYLQWSSLKASDTAMYYCARPQVHYDYNGFPYWGQGTLVTVSSASTKGPSVFPLAPSSKSTSGGTAALGCLVKDYFPEPVTVSWNSGALTSGVHTFPAVLQSSGLYSLSSVVTVPSSSLGTQTYICNVNHKPSNTKVDKKVEPKSCDKTHTCPPCPAPEAAGGPSVFLFPPKPKDTLMISRTPEVTCVVVSVSHEDPEVKFNWYVDGVEVHNAKTKPREEQYNSTYRVVSVLTVLHQDWLNGKEYKCKVSNKALPAPIEKTISKAKGQPREPQVYVYPPSREEMTKNQVSLTCLVKGFYPSDIAVEWESNGQPENNYKTTPPVLDSDGSFALVSKLTVDKSRWQQGNVFSCSVMHEALHNHYTQKSLSLSPG
light: EIVLTQSPSAMSASVGDRVTITCSASSSVSYMNWYQQKPGKVPKRLIYDSSKLASGVPSRFSGSGSGTEYTLTISSLQPEDFATYYCQQWSRNPPTFGQGTMLEIKRTVAAPSVFIFPPSDEQLKSGTASVVCLLNNFYPREAKVQWKVDNALQSGNSQESVTEQDSKDSTYSLSSTLTLSKADYEKHKVYACEVTHQGLSSPVTKSFNRGEC
chain: not shown
B13: PSMB1060 (bispecific antibody, human IgG1, kappa, L234A L235A)
heavy: not shown
light: not shown
chain: EIVLTQSPGTLSVSPGERATLSCRASQSVRSNLAWYQQKPGQAPRLLIYGASTRATGIPARFSGSGSGTEFTLTISSLQSEDFAVYYCHQYNDWPPYTFGQGTKLEIKGGSEGKSSGSGSESKSTGGSQVQLQESGGGVVQPGRSLRLSCAASGFTFSTYGMHWVRQAPGKGLEWVAFISYDGSNKYYADSVKGRFTISRDNSKHTLYLQMNSLRAEDTAVYYCAGRDNLRFLEWFMDVWGQGTTVTVSSEPKSSDKTHTCPPCPAPEAAGGPSVFLFPPKPKDTLMISRTPEVTCVVVSVSHEDPEVKFNWYVDGVEVHNAKTKPREEQYNSTYRVVSVLTVLHQDWLNGKEYKCKVSNKALPAPIEKTISKAKGQPREPQVYVLPPSREEMTKNQVSLLCLVKGFYPSDIAVEWESNGQPENNYLTWPPVLDSDGSFFLYSKLTVDKSRWQQGNVFSCSVMHEALHNHYTQKSLSLSPG
notes: HC1 (ZWA): B23B62-Fab; LC2 is NA

These binders were tested against T1, Human CD3 epsilon (CD3ε), on primary human pan T cells (human, UniProt P07766 23-207) (assay: cell-based or functional assay).
T1 sequence (P07766 23-207 limits assumed): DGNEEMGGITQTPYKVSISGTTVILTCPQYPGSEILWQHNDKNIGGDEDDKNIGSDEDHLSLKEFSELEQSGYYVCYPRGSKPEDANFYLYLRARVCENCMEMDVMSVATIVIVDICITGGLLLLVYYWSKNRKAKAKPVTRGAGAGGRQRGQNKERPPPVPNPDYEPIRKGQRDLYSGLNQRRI
In the case of B1, the “H929 Killing EC50” value is reported as 12.9 pM.
In the case of B2, the “H929 Killing EC50” value is reported as 41.5 pM.
For B3, the “H929 Killing EC50” value was 780 pM.
B4 was tested, and the “H929 Killing EC50” value was 85.3 pM.
With B5 the “H929 Killing EC50” value was 92.1 pM.
In the case of B6, the “H929 Killing EC50” value is reported as 42.6 pM.
For B7, the “H929 Killing EC50” value was 44.3 pM.
For B8, the “H929 Killing EC50” value was 172 pM.
For B9, the “H929 Killing EC50” value was 237 pM.
In the case of B10, the “H929 Killing EC50” value is reported as 12.6 pM.
With B11 the “H929 Killing EC50” value was 10000 pM.

Biological target: T1, Human CD3 epsilon (CD3ε), on primary …
Test: cell-based or functional assay
Remark: another data set of the same source
With B12 the “EC50, Cytotoxicity” value was 33.4 pM.
For B1, the “EC50, Cytotoxicity” value was 27.8 pM.
In the case of B2, the “EC50, Cytotoxicity” value is reported as 41.5 pM.
For B3, the “EC50, Cytotoxicity” value was 781 pM.
B4 was tested, and the “EC50, Cytotoxicity” value was 85.3 pM.
With B5 the “EC50, Cytotoxicity” value was 92.1 pM.
In the case of B6, the “EC50, Cytotoxicity” value is reported as 42.6 pM.
In the case of B7, the “EC50, Cytotoxicity” value is reported as 44.3 pM.
B8 was tested, and the “EC50, Cytotoxicity” value was 172 pM.
With B9 the “EC50, Cytotoxicity” value was 237 pM.
B10 was tested, and the “EC50, Cytotoxicity” value was 12.5 pM.

What follows are binders tested against T2, human PSMA on prostate cancer cell lines (22RV1, C4-2B) (human, UniProt Q04609 1-750) (assay: flow cytometry on C4-2B cells, four-parameter fit).
T2 construct: also called PSMA-expressing cell lines
Protocol: Molecule concentrations ranged from 500-0 nM over 12-points at 3-fold dilution. […] Values reported in the Table 69 were generated by fitting the data to a four-parameter function for ligand binding generating values for y-min, y-max, EC50, and Hill. EC90 were calculated using the equation EC90=[…]\hat{ }(1/Hill)*EC50.
Work on B13 yielded an EC50 of 11 nM, an EC90 of 59 nM and a Y-max of 1.6e+06. It also gave a Y-min of 86000.

What follows are binders tested against T3, recombinant human PSMA (human, UniProt Q04609 44-750) (assay: SPR (Biacore 8K), antibody captured on anti-Fc, PSMA in solution).
T3 construct: also called hu PSMA; prostate-specific membrane antigen
Protocol: The antibodies were captured on a goat anti-Fc antibody-modified C1 chip and titrated with 3-fold serial dilutions of PSMA antigen spanning concentrations of 1 nM to 100 nM human PSMA. The association and dissociation were monitored for 3 and 30 minutes, respectively, using a flow rate of 50 μL/min. Raw binding data was referenced by subtracting the analyte binding signals from blanks and analyzed using a 1:1 Langmuir binding model by the Biacore Insight evaluation software to obtain the kinetics which were used to calculate the binding affinity. The anti-PSMA were captured using an anti-human Fc antibody and the antigens were injected in solution.
B13 gave a Kd of 1.02 nM, a koff of 0.000119 s⁻¹ and a kon of 117000 M⁻¹ s⁻¹.

These binders were tested against T1, Human CD3 epsilon (CD3ε), on primary … (assay: flow cytometry on human T cells, anti-human IgG Fc A647 detection).
Protocol: The bsAbs were assayed for their abilities bind T cells and to induce T-cell mediated cytotoxicity against H929 cells (ATCC@CRL-9068™). […] Stain buffer with no antibody was added to bottom 4 wells and assign as background control (secondary antibody alone). Parental Cris7b, CD3B695 (bivalent mAb controls) and CD3B375 (bsAb which was monovalent for Cris-7b) were added also with full dose-response curves.
Frozen T-cells were thawed in a 37° C. water bath and transferred gently into conical tube containing warm 5 mL media (RPMI+10% FBS)/1 vial of 1×10⁶ cells. Cells were mixed and centrifuged for 5 minutes at 400×g followed by resuspension in flow staining buffer, and counted and viability checked. Cells were then plated in 50 uL/50,000 cells/well into assay plates. Assay positive control mAb was added in the first column in quadruplicates at 2× at 20 nM in the bottom 4 wells. Stain buffer with no mAb was added to the top 4 wells and assigned as background controls (secondary antibody alone). Serially diluted antibody samples were added at 50 uL/well using Intergra Viaflo according to the attached plate maps and incubated for 1 hr at 37° C. After one hour incubation, 150 uL staining buffer were added to all wells, and cells were spun at 500×g for 5 minutes to pellet cells. Cells were then washed prior to addition of Alexa Fluor 647 (A647) conjugated anti human IgG Fc specific secondary detection antibody at 2 ug/mL in staining buffer. Secondary detection antibody was added at 50 uL/well to the washed cells. Plates were covered with foil and incubated for 30 minutes on ice or in the fridge. 150 uL staining buffer were added to all wells, and cells were spun at 500×g for 5 min to pellet cells. Cells were resuspended in 20 uL running buffer containing 1:1000 dilution of SYTOX™ green dead cell stain and run plates on iQue® Screener flow cytometer (Essen BioScience, Inc.). Briefly, cells were gated on FCS vs. SCS dot plot to eliminate debris. Singlets were gated on SCS-A vs SCS-H dot plot and from singlet population, live cells gated choosing BL1 channel for low/negative with SYTOX™ green viability stain (Thermo Fisher).
B1 gave an EC50 of 1.9 nM.
With B2 the EC50 was 8.6 nM.
B3 showed an EC50 of 31.2 nM.
B4 was tested, and the EC50 was 11 nM.
In the case of B5, the EC50 is reported as 4.6 nM.
For B6, the EC50 was 13.8 nM.
Work on B7 yielded an EC50 of 11.1 nM.
Binder B8 has an EC50 of 20.7 nM.
B9 gave an EC50 of 64.2 nM.
With B10 the EC50 was 3.2 nM.
B11 showed an EC50 of 300 nM.
